One data set deals with T1, GST-Hec1^1–196 (UniProt O14777 1-196).
T1 construct: Hec1 (highly expressed in cancer 1)
T1 sequence (looked up): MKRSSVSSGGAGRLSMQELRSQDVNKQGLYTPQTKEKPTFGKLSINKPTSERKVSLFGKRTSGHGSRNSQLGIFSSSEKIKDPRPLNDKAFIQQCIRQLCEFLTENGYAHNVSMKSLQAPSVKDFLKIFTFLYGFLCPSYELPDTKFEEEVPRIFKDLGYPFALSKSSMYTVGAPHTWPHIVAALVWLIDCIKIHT
Nature of the data set: pull-down; GST-Hec1^1–196, GST-Hec1^1–196-9D or GST-Nuf2^1–169 on agarose beads as affinity matrices; MBP-tagged Mps1 truncations purified from E. coli; SDS-PAGE and anti-MBP blot. As to conditions: both partners purified.

The target in the next data set is T2, GST-Nuf2^1–169 (UniProt Q9BZD4 1-169).
T2 construct: Nuf2 (nuclear filament-containing protein 2), residues 1-169, with the calponin-homology domain
T2 sequence (looked up): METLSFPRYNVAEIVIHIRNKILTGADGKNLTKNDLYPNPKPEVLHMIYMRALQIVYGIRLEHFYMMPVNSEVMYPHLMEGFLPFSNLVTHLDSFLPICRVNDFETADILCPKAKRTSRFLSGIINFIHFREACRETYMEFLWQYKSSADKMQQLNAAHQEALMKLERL
The description is as above. As to conditions: both partners purified.

Data set [1] deals with the molecule itself. Nature of the data set: pull-down; GST-Mps1^C342-WT, GST-Mps1^C342-KD or GST-Mps1^PK-KD on agarose beads; purified 6× His-tagged Mps1^C342-WT or -KD; SDS-PAGE and anti-6× His blot (Figure 3C, Supplementary Figure S4E).

B1: MBP-tagged Mps1 tetratricopeptide repeat domain (TPR, amino acids 62–192) (domain or fragment, human, UniProt P33981 62-192, looked up)
chain: PEDWLSLLLKLEKNSVPLSDALLNKLIGRYSQAIEALPPDKYGQNESFARIQVRFAELKAIQEPDDARDYFQMARANCKKFAFVHISFAQFELSQGNVKKSKQLLQKAVERGAVPLEMLEIALRNLNLQKK
notes: Mps1, human, tetratricopeptide repeat domain, amino acids 62-192; also called Mps1^TPR; source: Escherichia coli, purified
For B1, the binding result with GST-Hec1^1–196 and with GST-Nuf2^1–169 was “binds” each time.

B2: MBP-tagged Mps1 C-terminal extension (CTE, amino acids 193–300) (domain or fragment, human, UniProt P33981 193-300, looked up)
chain: QLLSEEEKKNLSASTVLTAQESFSGSLGHLQNRNNSCDSRGQTTKARFLYGENMPPQDAEIGYRNSLRQTNKTKQSCPFGRVPVNLLNSPDCDVKTDDSVVPCFMKRQ
notes: Mps1, human, C-terminal extension of N300, amino acids 193-300; source: Escherichia coli, purified
Consider B2, for which the binding result in the data set with GST-Hec1^1–196 and with GST-Nuf2^1–169 was “binds” each time.

B3: Mps1^C342-WT fragment (amino acids 516–857), GST-tagged or 6× His-tagged (domain or fragment, human, UniProt P33981 516-857, looked up)
chain: ECISVKGRIYSILKQIGSGGSSKVFQVLNEKKQIYAIKYVNLEEADNQTLDSYRNEIAYLNKLQQHSDKIIRLYDYEITDQYIYMVMECGNIDLNSWLKKKKSIDPWERKSYWKNMLEAVHTIHQHGIVHSDLKPANFLIVDGMLKLIDFGIANQMQPDTTSVVKDSQVGTVNYMPPEAIKDMSSSRENGKSKSKISPKSDVWSLGCILYYMTYGKTPFQQIINQISKLHAIIDPNHEIEFPDIPEKDLQDVLKCCLKRDPKQRISIPELLAHPYVQIQTHPVNQMAKGTTEEMKYVLGQLVGLNSPNSILKAAKTLYEHYSGGESHNSSSSKTFEKKRGKK
notes: Mps1, human, amino acids 516-857: protein kinase domain (516-792) and C-tail (793-857); Two differently tagged copies of one fragment: the GST copy was the bait on beads, the 6× His copy the prey; each chain bears only one of the two tags; also called GST-Mps1^C342-WT; 6× His-Mps1^C342-WT; source: recombinant, purified
Consider B3, for which, in data set [1], the binding result is “binds”.

These data come from article PMC7493027, “Mps1 dimerization and multisite interactions with Ndc80 complex enable responsive spindle assembly checkpoint signaling” (Journal of Molecular Cell Biology, 2020).
